Results published in patent US8304519B2, “Compositions and methods for modulating dopamine neurotransmission” (Centre for Addiction and Mental Health, priority 2005, dated 2012).

Key:
[1] = biological target: T1, D2-DAT direct interaction (Homo sapiens, UniProt P14416); assay: In vitro binding assay, blockade of GST-DAT[NT1] binding to [35S]-D2[IL3-2] by peptides; details: co-incubation with purified peptide
T1 construct: made in house; host or cells: bacteria (GST fusion, pGEX4T-3)
T1 sequence (P14416 271-373): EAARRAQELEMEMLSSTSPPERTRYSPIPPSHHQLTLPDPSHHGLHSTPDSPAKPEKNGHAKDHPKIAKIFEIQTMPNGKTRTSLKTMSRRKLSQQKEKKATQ
Procedure: (§1) Glutathione beads carrying GST fusion proteins (DAT[NT1] (SEQ ID NO:7), DAT[NT2] (SEQ ID NO:9), DAT[NT3] (SEQ ID NO: 10)) or GST (10-20 μg each) alone was incubated with [35S]-methionine-labelled D2[IL3-2] probe (SEQ ID NO:3) respectively. The beads were then washed 4-6 times with PBS containing 0.5% Triton X-100 and eluted with 10 mM glutathione elution buffer. Eluates were separated by SDS-PAGE and visualized by autoradiography.

[35S]-D2[IL3-2] = biological target: T2, [35S]-D2[IL3-2] (Homo sapiens, UniProt P14416); assay: In vitro binding assay of GST-DAT fusion proteins with [35S]-D2[IL3-2] probe; details: autoradiography
T2 construct: made in house
T2 sequence (P14416 271-373): T1 sequence (P14416 271-373)
Procedure: as §1

D2-DAT coupling = biological target: T3, D2-DAT coupling (Homo sapiens, UniProt P14416); assay: [3H]DA uptake in rat midbrain primary cultures infected with DAT and D2 adenovirus; assay type: cell-based; details: 10 μM for 30 minutes, cultured neurons
T3 construct: expressed in transfected cells; host or cells: primary rat midbrain neuronal cultures, adenoviral infection
Procedure: Measurement of DA uptake was performed on intact cells as previously described (30). Briefly, 2-4 days following transfection in 24-well plates (˜2×10^5 cells seeded per well) medium was removed and wells were rinsed with 0.5 mL of uptake buffer (5 mM Tris, 7.5 mM HEPES, 120 mM NaCl, 5.4 mM KCl, 1.2 mM CaCl2, 1.2 mM MgSO4, 1 mM ascorbic acid, 5 mM glucose, pH 7.1). […] (final concentration) and incubated for 10 min at room temperature in a total volume of 0.5 mL. Nonspecific [3H] DA (37-53 Ci/mmol) uptake was defined in the presence of 10 μM mazindol. Wells were rinsed twice with 0.5 mL of uptake buffer and cells were solubilized in 0.5 mL of 1% SDS and collected to measure incorporated radioactivity using a Beckman liquid scintillation counter (LS 6000SC).
Midbrain cultures from postnatal day 2 rats are prepared by dissection of ventrolateral sections of the mesencephalon (avoiding medial tissue regions) in ice-cold HBSS. Tissue is placed in cold neurobasal/B27 medium (Invitrogen) supplemented with 0.5 mM L-glutamine, and 10 ng/mL bFGF (culture medium). […] The single cell suspensions are counted with a hemocytometer for plating at desired densities onto poly-D-Lysine (100 ug/mL) coated tissue culture plates of varying formats or, onto coated glass cover-slips for microscopy. […]

[2] = Amphetamine-induced hyper-locomotor activity; assay type: in vivo; details: ip injection, 3 nmol/g
Procedure: Tests of locomotor activity were conducted in four clear Plexiglas activity chambers (Med Associates Inc., St Albans, Vt.) measuring 43 cm long, 43 cm wide, and 30 cm high. An array of 16×16 photodetectors, spaced 2.5 cm apart, and positioned 2.5 cm above the floor of the chamber was used to detect horizontal locomotor activity as distance traveled. Prior to testing, all mice were first habituated to the apparatus by placing them in the activity chambers for 1 h on three consecutive days. On test days, mice were placed in the activity chamber for 1 h prior to receiving an IP injection of TAT (SEQ ID NO:14), TAT-DAT[NT1-1] (SEQ ID NO:12), or TAT-DAT[NT1-2] peptide (SEQ ID NO: 13). Locomotor activity was then measured for the next 180 min.

[3] = systemically injected; cited from earlier work
D2 receptor [4] = biological target: T4, D2 receptor (Homo sapiens, UniProt P14416); assay: cAMP accumulation in cells co-expressing D2 with DAT; assay type: cell-based; set-up: expressed in transfected cells; host or cells: HEK-293 cells co-expressing D2 and DAT; details: data not shown
D2 receptor [5] = biological target: T4, D2 receptor; assay type: cell-based; set-up: expressed in transfected cells; host or cells: HEK-293 cells co-expressing D2 and DAT; details: pre-incubation 150-200 ng/ml, HEK-293 cells co-expressing D2 and DAT
Procedure: Measurement of DA uptake was performed on intact cells as previously described (30). Briefly, 2-4 days following transfection in 24-well plates (˜2×10^5 cells seeded per well) medium was removed and wells were rinsed with 0.5 mL of uptake buffer (5 mM Tris, 7.5 mM HEPES, 120 mM NaCl, 5.4 mM KCl, 1.2 mM CaCl2, 1.2 mM MgSO4, 1 mM ascorbic acid, 5 mM glucose, pH 7.1). […] Wells were rinsed twice with 0.5 mL of uptake buffer and cells were solubilized in 0.5 mL of 1% SDS and collected to measure incorporated radioactivity using a Beckman liquid scintillation counter (LS 6000SC).

D2 receptor [6] = biological target: T4, D2 receptor; assay: Cell-ELISA of DAT membrane expression on D2 activation in cultured midbrain neurons; assay type: cell-based, rat; set-up: expressed in transfected cells; host or cells: primary rat midbrain neuronal cultures, adenoviral infection; details: cultured midbrain neurons infected with D2 and DAT adenoviruses
Procedure: Cell-ELISA assays (colorimetric assays) were done essentially as previously described (Lee et al., 2002a). Neurons or HEK-293T cells were transiently transfected with the indicated cDNA constructs by the Lipofectamine 2000 (InVitrogen) method (6-10 μg of each indicated cDNA per 7.5×10^6 cells), and equally distributed to two 6-well plates (35 mm/well), and grown for 2-4 days. The same density of co-transfected cells were fixed in 4% paraformaldehyde for 10 min in the absence (non-permeabilized conditions) or the presence (permeabilized conditions) of 1% Triton X-100. Cells were incubated with DAT antibody against the extracellular loop (Chemicon) for the purpose of labeling the proteins on the cell surface under non-permeabilized conditions or the entire transporter pool under permeabilized conditions. […] The cell surface expression of DAT was presented as the ratio of colorimetric readings under non-permeabilized conditions to those under permeabilized conditions. […]
(§2) Midbrain cultures from postnatal day 2 rats are prepared by dissection of ventrolateral sections of the mesencephalon (avoiding medial tissue regions) in ice-cold HBSS. […] The single cell suspensions are counted with a hemocytometer for plating at desired densities onto poly-D-Lysine (100 ug/mL) coated tissue culture plates of varying formats or, onto coated glass cover-slips for microscopy. […]

D2 receptor [7] = biological target: T4, D2 receptor; assay: DA uptake on D2 activation in cultured midbrain neurons infected with D2 and DAT adenoviruses; assay type: cell-based, rat; set-up: expressed in transfected cells; host or cells: primary rat midbrain neuronal cultures, adenoviral infection
Procedure: Measurement of DA uptake was performed on intact cells as previously described (30). Briefly, 2-4 days following transfection in 24-well plates (˜2×10^5 cells seeded per well) medium was removed and wells were rinsed with 0.5 mL of uptake buffer (5 mM Tris, 7.5 mM HEPES, 120 mM NaCl, 5.4 mM KCl, 1.2 mM CaCl2, 1.2 mM MgSO4, 1 mM ascorbic acid, 5 mM glucose, pH 7.1). Cells were then preincubated in duplicate with the indicated concentrations of dopaminergic agents (10^−13 to 10^−4 M) 5 min prior to the addition of 0.25 mL of 20 nM [3H]DA (final concentration) and incubated for 10 min at room temperature in a total volume of 0.5 mL. Nonspecific [3H] DA (37-53 Ci/mmol) uptake was defined in the presence of 10 μM mazindol. Wells were rinsed twice with 0.5 mL of uptake buffer and cells were solubilized in 0.5 mL of 1% SDS and collected to measure incorporated radioactivity using a Beckman liquid scintillation counter (LS 6000SC).
as §2

T4 sequence (P14416 1-414 isoform P14416-2): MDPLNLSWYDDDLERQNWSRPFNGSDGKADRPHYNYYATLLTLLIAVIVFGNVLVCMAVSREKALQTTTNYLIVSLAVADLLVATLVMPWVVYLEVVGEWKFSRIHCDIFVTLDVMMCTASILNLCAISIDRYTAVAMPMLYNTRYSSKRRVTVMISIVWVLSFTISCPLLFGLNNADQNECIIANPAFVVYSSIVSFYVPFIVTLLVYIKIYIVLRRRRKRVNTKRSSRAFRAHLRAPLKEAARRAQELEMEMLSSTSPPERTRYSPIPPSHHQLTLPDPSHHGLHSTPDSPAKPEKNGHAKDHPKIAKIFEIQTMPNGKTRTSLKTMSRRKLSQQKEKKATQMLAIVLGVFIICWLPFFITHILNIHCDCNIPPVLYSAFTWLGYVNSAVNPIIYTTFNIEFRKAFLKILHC
T3 sequence (P14416 1-414 isoform P14416-2): as above

With “DAT[NT1-1] (M1-V15) peptide: purified peptide DAT M1-V15, MSKSKCSVGLMSSVV (SEQ ID NO:2) (Human dopamine transporter protein (DAT[NT1-1] M1-V15))” the “disruption of the interaction between [35S]-D2[IL3-2] and GST fused DAT[NT1]” value [1] was “disrupted”.
With “GST fused DAT[NT1]: GST fusion protein encoding DAT M1-P26, MSKSKCSVGLMSSVVAPAKEPNAVGP (SEQ ID NO:7)” the “hybridization (direct binding) with [35S]-D2[IL3-2]” value ([35S]-D2[IL3-2]) was “hybridized”.
In the case of “TAT-DAT[NT1-2] peptide: DAT[NT1-2] (A16-P26) peptide fused to HIV-1 TAT cell-membrane transduction domain (SEQ ID NO:13) (YGRKKRRQRRRAPAKEPNAVGP; HIV virus type 1 TAT protein fused to human dopamine transporter protein (TAT-DAT[NT1-2]))”, the “DAT-mediated DA uptake” value (D2-DAT coupling) is reported as “did not produce any effects” and the “behavioural effects of amphetamine (hyper-locomotor activity)” value [2] is reported as “reduce”.
For “Tyr-Gly-Arg-Lys-Lys-Arg-Arg-Gln-Arg-Arg-Arg [TAT peptide]”, the “time after IP injection at which the blood-brain barrier is penetrated” value [3] is listed as 1 h.
In the case of pertussis toxin (PTX), the “functional block of the ability of the D2 receptor to inhibit cAMP accumulation” value (D2 receptor [4]) is reported as “confirmed”, the “blockade of quinpirole-induced decrease in DAT-mediated DA uptake” value (D2 receptor [5]) is reported as “blocked” and the “blockade of inhibition of DAT membrane expression by activation of D2 receptor” value (D2 receptor [6]) is reported as “blocked”. The “blockade of inhibition of DAT-mediated DA uptake by activation of D2 receptor” value (D2 receptor [7]) was “blocked”.
